Data as given in patent publication US4254225A, “Novel neutral glucoamylase and method for its production” (priority 1978, dated 1981).

Experiments:
[1] = Substrate specificity: reaction rate on various substrates at 1% concentration; type: biochemical
Method: ^a The enzymatic activities of each glucoamylase were determined with
the substrates present at a 1% concentration; each enzyme' s activity in
relation to dextrin was assigned the value 100, and the activities on the
other substrates are presented as relative
(§1) A 0.5-ml aliquot of a suitably diluted enzyme solution was added to 0.5 ml of a 2% solution of a spray-dried maltodextrin (D.E. about 10) in 0.1 M acetate buffer solution (pH 6.0) and this was incubated at 60° C. for precisely 10 minutes. The enzyme reaction was then stopped by heating the mixture for 5 minutes in a boiling water bath. The amount of dextrose produced was determined by the glucose oxidase method. The amount of enzyme producing 1 micromole of dextrose per minute was defined as 1 unit.

[2] = Relationship between reaction pH and enzymatic activity (optimum pH); type: biochemical; conditions: values marked with an asterisk (own)
Method: as §1

[3] = type: biochemical; conditions: values marked with an asterisk (own)
[4] = Saccharification of about 30% starch hydrolyzate to dextrose; type: biochemical; conditions: same substrate concentration as Example 3; pH 4.3 at 60° C.

B1: Aspergillus niger Glucoamylase: conventional glucoamylase from Aspergillus niger, available from Enzyme Development Corporation (protein, UniProt P69328 25-640, looked up)
Glucoamylase: ATLDSWLSNEATVARTAILNNIGADGAWVSGADSGIVVASPSTDNPDYFYTWTRDSGLVLKTLVDLFRNGDTSLLSTIENYISAQAIVQGISNPSGDLSSGAGLGEPKFNVDETAYTGSWGRPQRDGPALRATAMIGFGQWLLDNGYTSTATDIVWPLVRNDLSYVAQYWNQTGYDLWEEVNGSSFFTIAVQHRALVEGSAFATAVGSSCSWCDSQAPEILCYLQSFWTGSFILANFDSSRSGKDANTLLGSIHTFDPEAACDDSTFQPCSPRALANHKEVVDSFRSIYTLNDGLSDSEAVAVGRYPEDTYYNGNPWFLCTLAAAEQLYDALYQWDKQGSLEVTDVSLDFFKALYSDAATGTYSSSSSTYSSIVDAVKTFADGFVSIVETHAASNGSMSEQYDKSDGEQLSARDLTWSYAALLTANNRRNSVVPASWGETSASSVPGTCAATSAIGTYSSVTVTSWPSIVATGGTTTTATPTGSGSVTSTSKTTATASKTSTSTSSTSCTTPTAVAVTFDLTATTTYGENIYLVGSISQLGDWETSDGIALSADKYTSSDPLWYVTVTLPAGESFEYKFIRIESDDSVEWESDPNREYTVPQACGTSTATVTDTWR
[1]; substrate Amylpectin, relative to dextrin = 100
  Reaction Rate: 113
[1]; substrate Dextrin (D.E. 10), relative, activity on dextrin assigned 100
  Reaction Rate: 100
[1]; substrate Glycogen, relative to dextrin = 100
  Reaction Rate: 100
[1]; substrate Maltohexaose, relative to dextrin = 100
  Reaction Rate: 100
[1]; substrate Maltose, relative to dextrin = 100
  Reaction Rate: 26
[1]; substrate Maltotriose, relative to dextrin = 100
  Reaction Rate: 12
[1]; substrate Panose, relative to dextrin = 100
  Reaction Rate: 47
[1]; substrate Pullulan, relative to dextrin = 100
  Reaction Rate: 2
[1]; substrate Soluble Starch, relative to dextrin = 100
  Reaction Rate: 95
[2]
  Optimum pH: 4.5
[3]
  Optimum Temp.: 70 °C
[4]
  dextrose yield: 96.5%
